± gives the uncertainty stated by the source.
Assay: self-splicing fitness, log relative to wild type (ln ratio); higher = more splicing; Tetrahymena group I intron in knt gene, E. coli kanamycin selection, DiMSum; sequences stand for … in CUCUCU…GGAGGGAAAAGUUAUCAGGCAUGCACCUGGUAGCUAGUCUUUAAACCAAUAGAUUGCAUCGGUUUAAAAGGCAAGACCGUCAAAUUGCGGGAAAGGGGUCAACAGCCGUUCAGUACCAAGUCUCAGGGGAAACUUUGAGAUGGCCUUGCAAAGGGUAUGGUAAUAAGCUGACGGACAUGGUCCUAACCACGCAGCCAAGUCCUAAGUCAACAGAUCUUCUGUUGAUAUGGAUGCAGUUCACAGACUAAAUGUCGGUCGGGGAAGAUGUAUUCUUCUCAUAAGAUAUAGUCGGACCUCUCCUUAAUGGGAGCUAGCGGAUGAAGUGAUGCAACACUGGAGCCGCUGGGAACUAAUUUGUAUGCGAAAGUAUAUUGAUUAGUUUUGGAGUACUCGUGGUCG
Summary of the method: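 The eight P1ex-region nucleotides of an intron in the knt kanamycin-resistance gene on pET-22b(+) were all randomised and the library put into E. coli BL21(DE3). Six replicate transformations were grown overnight at 37°C or 30°C on LB agar with or without 25 μg/mL kanamycin, together with 100 μg/mL carbenicillin, 50 μM IPTG and 0.2% rhamnose. Colonies were pooled and amplicon-sequenced on an Illumina HiSeq 2500. Fitness from DiMSum is the error-weighted combination of wild-type-normalised replicate fold changes, kanamycin over none.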

Row | Sequence | self-splicing fitness (ln) (30 °C) | self-splicing fitness (ln) (37 °C)
1 | UCUUAGCAAUAUUACGUGUG | -2.13 ± 0.13 | -0.484 ± 0.099
2 | AAUGAGCAAUAUUACGGUUG | -2.99 ± 0.13 | -2.81 ± 0.19
3 | AGCAAGCAAUAUUACGAACU | -0.731 ± 0.12 | -0.593 ± 0.14
4 | AUGGAGCAAUAUUACGAUGC | -2.15 ± 0.37 | -2.04 ± 0.35
5 | CACUAGCAAUAUUACGUGAU | -3.32 ± 0.12 | -3.21 ± 0.15
6 | AGCGAGCAAUAUUACGCACG | -3.64 ± 0.45 | –
7 | GCCAAGCAAUAUUACGCUUU | -0.998 ± 0.051 | -1.18 ± 0.072
8 | GACAAGCAAUAUUACGGCGU | -0.596 ± 0.063 | -0.154 ± 0.08
9 | AGCCAGCAAUAUUACGGAUG | -1.85 ± 0.1 | -0.824 ± 0.12
10 | ACUGAGCAAUAUUACGCUAA | -3.41 ± 0.43 | -3.71 ± 0.39
11 | AUAAAGCAAUAUUACGCUUC | -3.66 ± 0.37 | -2.39 ± 0.32
12 | GCACAGCAAUAUUACGCUAU | -1.98 ± 0.08 | -0.752 ± 0.086
13 | GACCAGCAAUAUUACGAUCU | -0.841 ± 0.091 | -0.153 ± 0.1
14 | UCAAAGCAAUAUUACGCUAC | -2.96 ± 0.46 | -2.22 ± 0.37
15 | GAGAAGCAAUAUUACGACGU | -0.944 ± 0.22 | 0.108 ± 0.19
16 | CAUCAGCAAUAUUACGUCAG | -0.52 ± 0.062 | 0.43 ± 0.092
17 | GGAUAGCAAUAUUACGGAUA | – | -1.56 ± 0.26
18 | AAGGAGCAAUAUUACGAUUC | -1.13 ± 0.19 | -1.78 ± 0.48
19 | GCCGAGCAAUAUUACGACUU | -1.04 ± 0.31 | -0.625 ± 0.34
20 | AUCGAGCAAUAUUACGCGGA | -2.55 ± 0.17 | -0.974 ± 0.11
21 | GAAAAGCAAUAUUACGCCGC | -2.23 ± 0.25 | –
22 | GAUAAGCAAUAUUACGAUGA | -0.666 ± 0.097 | -0.376 ± 0.11
23 | GUCAAGCAAUAUUACGUCUC | -0.66 ± 0.076 | -0.461 ± 0.097
24 | CGGAAGCAAUAUUACGUGUC | -3.44 ± 0.28 | -1.94 ± 0.31
25 | UUGAAGCAAUAUUACGGACA | 0.534 ± 0.1 | 0.655 ± 0.14

Row | Sequence | self-splicing fitness (ln) (30 °C) | self-splicing fitness (ln) (37 °C)
26 | UCUGAGCAAUAUUACGAUGU | -2.72 ± 0.15 | -0.718 ± 0.16
27 | CGUAAGCAAUAUUACGUCCA | -2.61 ± 0.17 | -1.25 ± 0.17
28 | AUUGAGCAAUAUUACGUGCG | -3.83 ± 0.24 | -2.02 ± 0.16
29 | GUACAGCAAUAUUACGGGGG | -3.36 ± 0.12 | -3.03 ± 0.15
30 | CCGUAGCAAUAUUACGACGG | – | -0.894 ± 0.28
31 | GAUUAGCAAUAUUACGCCCC | -1.52 ± 0.46 | -0.314 ± 0.48
32 | UACCAGCAAUAUUACGAUAG | -1.1 ± 0.067 | 0.0475 ± 0.097
33 | UCGCAGCAAUAUUACGGAUU | -3.46 ± 0.17 | -2.51 ± 0.18
34 | UUUGAGCAAUAUUACGGUCC | -3.88 ± 0.28 | -1.8 ± 0.23
35 | UCCGAGCAAUAUUACGGUAU | -1.95 ± 0.15 | -2.41 ± 0.23
36 | GCGUAGCAAUAUUACGAGGG | -3.37 ± 0.16 | -1.96 ± 0.17
37 | UCAUAGCAAUAUUACGGAAC | -4.02 ± 0.47 | –
38 | GAUGAGCAAUAUUACGCAUC | -2.56 ± 0.25 | -2.32 ± 0.28
39 | UUUAAGCAAUAUUACGUUUC | -3.96 ± 0.35 | -3.19 ± 0.4
40 | UAAAAGCAAUAUUACGUACG | -0.745 ± 0.084 | 0.35 ± 0.12
41 | AACUAGCAAUAUUACGGACA | -0.804 ± 0.15 | -0.48 ± 0.13
42 | UCCUAGCAAUAUUACGCCGG | – | -1.88 ± 0.3
43 | ACCCAGCAAUAUUACGGACG | -1.1 ± 0.07 | -0.9 ± 0.08
44 | UUUCAGCAAUAUUACGGAUG | -0.64 ± 0.064 | 0.256 ± 0.096
45 | ACCAAGCAAUAUUACGCCGC | -3.04 ± 0.24 | -0.837 ± 0.18
46 | UUUUAGCAAUAUUACGGAAA | -1.73 ± 0.23 | -1.14 ± 0.34
47 | CGUAAGCAAUAUUACGUACG | -3.57 ± 0.25 | -1.59 ± 0.23
48 | UUCUAGCAAUAUUACGCAAG | -2.26 ± 0.35 | -0.437 ± 0.34
49 | CCGGAGCAAUAUUACGGCAG | -3.21 ± 0.24 | -3.16 ± 0.33
50 | AUUUAGCAAUAUUACGACGG | -1.79 ± 0.18 | -0.641 ± 0.16

Row | Sequence | self-splicing fitness (ln) (30 °C) | self-splicing fitness (ln) (37 °C)
51 | CACCAGCAAUAUUACGUCGU | -3.78 ± 0.13 | -1.83 ± 0.097
52 | GGUCAGCAAUAUUACGUAUA | -1.7 ± 0.18 | -0.369 ± 0.18
53 | UCUAAGCAAUAUUACGACAU | -3.444 ± 0.025 | -2.23 ± 0.037
54 | ACCCAGCAAUAUUACGCCUC | -1.05 ± 0.084 | -0.0787 ± 0.11
55 | GUUCAGCAAUAUUACGCAUU | -0.22 ± 0.06 | 0.414 ± 0.078
56 | AUACAGCAAUAUUACGUUUA | -1.73 ± 0.078 | -1.07 ± 0.084
57 | GCCAAGCAAUAUUACGAAUA | -2.96 ± 0.17 | -2.72 ± 0.18
58 | UCCGAGCAAUAUUACGGUUA | -0.525 ± 0.058 | -0.174 ± 0.063
59 | AUGGAGCAAUAUUACGCGGA | -2.73 ± 0.29 | -1.34 ± 0.22
60 | GUACAGCAAUAUUACGUGUG | -2.12 ± 0.087 | -1.45 ± 0.1
61 | UUGAAGCAAUAUUACGUAGC | -3.42 ± 0.28 | -2.53 ± 0.33
62 | CGUAAGCAAUAUUACGUAGA | -4.43 ± 0.3 | -3.25 ± 0.29
63 | GAGAAGCAAUAUUACGGCGC | 0.341 ± 0.21 | -0.241 ± 0.22
64 | CCAGAGCAAUAUUACGCGGC | -3.88 ± 0.39 | -2.96 ± 0.24
65 | CUUGAGCAAUAUUACGUUGU | -3.73 ± 0.14 | -2.94 ± 0.14
66 | CGGCAGCAAUAUUACGGUUC | -2.16 ± 0.093 | -0.799 ± 0.098
67 | CUACAGCAAUAUUACGGACU | -1.76 ± 0.17 | -1.75 ± 0.19
68 | GCGCAGCAAUAUUACGUUCA | -0.782 ± 0.098 | 0.151 ± 0.1
69 | CGCGAGCAAUAUUACGCGGC | – | -2.4 ± 0.38
70 | GUUCAGCAAUAUUACGGACC | – | -2.8 ± 0.38
71 | CAAAAGCAAUAUUACGCGGG | -2.38 ± 0.11 | -1.87 ± 0.13
72 | CAAGAGCAAUAUUACGACGC | – | -1.56 ± 0.32
73 | CAUGAGCAAUAUUACGCUCA | -3.35 ± 0.17 | -2.18 ± 0.18
74 | CCGCAGCAAUAUUACGCAAC | -3.22 ± 0.19 | -3.07 ± 0.32
75 | GCAUAGCAAUAUUACGGCUG | -1.97 ± 0.16 | -1.22 ± 0.18

Row | Sequence | self-splicing fitness (ln) (30 °C) | self-splicing fitness (ln) (37 °C)
76 | UAUUAGCAAUAUUACGCAAG | -2.29 ± 0.16 | -1.8 ± 0.18
77 | CUAUAGCAAUAUUACGGUUU | -3.72 ± 0.12 | -2.58 ± 0.17
78 | CAACAGCAAUAUUACGGCAG | -0.117 ± 0.069 | -0.00847 ± 0.076
79 | AGUUAGCAAUAUUACGUCGC | -2.96 ± 0.39 | -0.924 ± 0.18
80 | CAAUAGCAAUAUUACGGCGG | 0.429 ± 0.11 | -0.0335 ± 0.14
81 | CCUUAGCAAUAUUACGACGC | -3.94 ± 0.33 | -2.51 ± 0.29
82 | CGCCAGCAAUAUUACGUGCA | -0.897 ± 0.056 | 0.212 ± 0.085
83 | AUAAAGCAAUAUUACGUGCC | -0.00478 ± 0.083 | 0.162 ± 0.12
84 | ACUAAGCAAUAUUACGGGUC | -3.49 ± 0.34 | -0.75 ± 0.23
85 | ACGGAGCAAUAUUACGUUUU | – | -3.08 ± 0.2
86 | CUAGAGCAAUAUUACGGUAC | -3.01 ± 0.33 | –
87 | UUCAAGCAAUAUUACGAACA | -2.07 ± 0.2 | -0.752 ± 0.13
88 | AUAGAGCAAUAUUACGACCA | -2.34 ± 0.18 | -1.49 ± 0.27
89 | AGACAGCAAUAUUACGGUAC | -3.29 ± 0.17 | -2.41 ± 0.17
90 | CCCCAGCAAUAUUACGCAGC | -3.44 ± 0.15 | -2.84 ± 0.21
91 | AUCAAGCAAUAUUACGUUCC | -2.85 ± 0.13 | -0.598 ± 0.17
92 | UACUAGCAAUAUUACGAUUG | -1.88 ± 0.16 | -0.352 ± 0.21
93 | UUGUAGCAAUAUUACGAAAG | -2.43 ± 0.32 | -2.69 ± 0.34
94 | GUUUAGCAAUAUUACGUAGA | -2.37 ± 0.15 | -0.622 ± 0.2
95 | CCACAGCAAUAUUACGGAGG | -3.92 ± 0.22 | -1.16 ± 0.12
96 | UCAAAGCAAUAUUACGACUG | -0.4 ± 0.086 | -0.859 ± 0.11
97 | CCUGAGCAAUAUUACGGUGC | -2.51 ± 0.25 | -2.15 ± 0.43
98 | AGAAAGCAAUAUUACGGAUC | -1.53 ± 0.13 | -0.656 ± 0.17

From the supplement of paper PMC7877785
